In the supplement of paper PMC7125110:
± gives the standard error. For part of these data: This sample holds only a part of the variants without activity.

B1: glmS ribozyme (parent)
chain: AUAAAAGCGCCAGAACUACAGAAAUGUAGUUGACGAGGAGGAGGUUUAUCGAAUUUUCGGCGGAUGCCUCCAAA

What was measured:
Settings in all cases: with glucosamine-6-phosphate
glucosamine-6-phosphate [1] = variants of: B1; experiment: kcat; higher = faster cleavage; RNA array
Procedure, shortened: (§1)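 Barcoded ribozyme variants were transcribed in situ on sequenced MiSeq chips by E. coli RNA polymerase. At 37 °C, a hybridised Cy3 probe tracked them while glucosamine-6-phosphate (40 μM to 10 mM) in HEPES/KCl/Mg(OAc)2 buffer flowed in and tiles were imaged over ~14 h. Per-tile medians of signals normalised to baseline and to non-cleaving reference variants were fit to one- or two-exponential decays, giving kobs. kcat and KM came from weighted Michaelis–Menten fits across concentrations.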

glucosamine-6-phosphate [2] = variants of: B1; experiment: KM; higher = weaker cofactor use; RNA array
Procedure, shortened: as §1

glucosamine-6-phosphate [3] = variants of: B1; experiment: self-cleavage kobs at 2500 uM GlcN6P; higher = faster cleavage; RNA array
Procedure, shortened: as §1

glucosamine-6-phosphate [4] = variants of: B1; experiment: self-cleavage kobs at 10000 uM GlcN6P; higher = faster cleavage; RNA array
Procedure, shortened: as §1

glucosamine-6-phosphate [5] = variants of: B1; experiment: self-cleavage kobs at 640 uM GlcN6P; higher = faster cleavage; RNA array
Procedure, shortened: as §1

glucosamine-6-phosphate [6] = variants of: B1; experiment: self-cleavage kobs at 40 uM GlcN6P; higher = faster cleavage; RNA array
Procedure, shortened: as §1

glucosamine-6-phosphate [7] = variants of: B1; experiment: self-cleavage kobs at 160 uM GlcN6P; higher = faster cleavage; RNA array
Procedure, shortened: as §1

AUAAAAGCGCCAGAACUACAGAAAUGUAGUUGACGAGGAGGAGGUUUAUCGAAUUUAGGGCGGAUGCCUCCAAA [U57A C58G]
kcat (glucosamine-6-phosphate [1]): 7.04e-05 ± 3.8e-06 s⁻¹
KM (glucosamine-6-phosphate [2]): 4690 ± 580 µM
self-cleavage kobs at 2500 uM GlcN6P (glucosamine-6-phosphate [3]): 2.42e-05 ± 1.1e-05 s⁻¹
self-cleavage kobs at 10000 uM GlcN6P (glucosamine-6-phosphate [4]): 4.8e-05 ± 1.2e-05 s⁻¹

AUAAAAGCGCCAGAACUACAGAAAUGUAGUUGACGAGGAGGUGGUUUAUCGAAUAUUCGGCGGAUGCCUCCAAA [A42U U55A]
kcat (glucosamine-6-phosphate [1]): 0.000213 ± 6.1e-06 s⁻¹
KM (glucosamine-6-phosphate [2]): 1260 ± 86 µM
self-cleavage kobs at 640 uM GlcN6P (glucosamine-6-phosphate [5]): 7.19e-05 ± 1.1e-05 s⁻¹
self-cleavage kobs at 2500 uM GlcN6P (glucosamine-6-phosphate [3]): 0.000143 ± 2.6e-05 s⁻¹
self-cleavage kobs at 10000 uM GlcN6P (glucosamine-6-phosphate [4]): 0.000188 ± 2.2e-05 s⁻¹

AUAAAAGCGCCAGAACUACAGAAAUGUAGUUGACGAGGAGGAGGUUUAUCAAACUUUCGGCGGAUGCCUCCAAA [G51A U54C]
kcat (glucosamine-6-phosphate [1]): < 1e-05 s⁻¹

AUAAAAGCGCCUGAACUACAGAAAUGUAGUCGACGAGGAGGAGGUUGAUCGAAUUUUCGGCGGAUGCCUCCAAA [A12U U31C U47G]
kcat (glucosamine-6-phosphate [1]): 0.00222 ± 0.00076 s⁻¹
KM (glucosamine-6-phosphate [2]): 5110 ± 2400 µM
self-cleavage kobs at 40 uM GlcN6P (glucosamine-6-phosphate [6]): 4.15e-05 ± 1.7e-05 s⁻¹
self-cleavage kobs at 160 uM GlcN6P (glucosamine-6-phosphate [7]): 8.69e-05 ± 1.9e-05 s⁻¹
self-cleavage kobs at 640 uM GlcN6P (glucosamine-6-phosphate [5]): 0.000212 ± 4.5e-05 s⁻¹
self-cleavage kobs at 2500 uM GlcN6P (glucosamine-6-phosphate [3]): 0.000645 ± 0.00015 s⁻¹
self-cleavage kobs at 10000 uM GlcN6P (glucosamine-6-phosphate [4]): 0.00156 ± 0.00026 s⁻¹

AUAAAAGCGCCAGAACUACAGAAAUGUAGUUGACGAGGAAGAGGUAUAUCGAAUUUUCGGCGGAUGCCUCCAAA [G40A U46A]
kcat (glucosamine-6-phosphate [1]): 0.00064 ± 0.00019 s⁻¹
self-cleavage kobs at 640 uM GlcN6P (glucosamine-6-phosphate [5]): 0.000254 ± 5.4e-05 s⁻¹
self-cleavage kobs at 2500 uM GlcN6P (glucosamine-6-phosphate [3]): 0.000422 ± 9.6e-05 s⁻¹
self-cleavage kobs at 10000 uM GlcN6P (glucosamine-6-phosphate [4]): 0.000495 ± 9.6e-05 s⁻¹

AUAAAAGCGCCAGCACUACAGAAAUGUAGUUGACGAGGAGGAGGUUUAUCGAAUUUUCGACGGAUGCCUCCAAA [A14C G60A]
kcat (glucosamine-6-phosphate [1]): < 1e-05 s⁻¹
self-cleavage kobs at 40 uM GlcN6P (glucosamine-6-phosphate [6]): < 1e-05 s⁻¹
self-cleavage kobs at 640 uM GlcN6P (glucosamine-6-phosphate [5]): < 1e-05 s⁻¹

AUAAAAGCGCCAUAACUACAGAAAUGUAGUUGACGAGGAGGAGGUUUAUCGAAUUUUUGGCGGAUGGCUCCAAA [G13U C58U C67G]
kcat (glucosamine-6-phosphate [1]): 2.59e-05 ± 5.8e-06 s⁻¹

AUAAAGGCGCCAGAACUACAGAAAUGUAGUUGACGAGGAGGAGGUUUAUCGAAUUUUCGGCGGAUGCCUACAAA [A6G C70A]
kcat (glucosamine-6-phosphate [1]): < 1e-05 s⁻¹
self-cleavage kobs at 40 uM GlcN6P (glucosamine-6-phosphate [6]): < 1e-05 s⁻¹
self-cleavage kobs at 10000 uM GlcN6P (glucosamine-6-phosphate [4]): < 1e-05 s⁻¹

AUAAAAGCGCCAGAACUACAGAAAUGUAGUUGACGAGGAGGAGGUUUAUCGUAUUUGCGGCGGAUGCCUCCAAA [A52U U57G]
kcat (glucosamine-6-phosphate [1]): 5.28e-05 ± 9.7e-06 s⁻¹
self-cleavage kobs at 40 uM GlcN6P (glucosamine-6-phosphate [6]): < 1e-05 s⁻¹
self-cleavage kobs at 10000 uM GlcN6P (glucosamine-6-phosphate [4]): 4.88e-05 ± 7.6e-06 s⁻¹

AUAAAAGCACCAGAACUACAGAAAUGUAGUUGACGAGGAGGAGGUUUAUCGAAUUUUCGGUGGAUGCCUCCAAA [G9A C61U]
kcat (glucosamine-6-phosphate [1]): 0.000168 ± 1.3e-05 s⁻¹
KM (glucosamine-6-phosphate [2]): 1390 ± 290 µM
self-cleavage kobs at 640 uM GlcN6P (glucosamine-6-phosphate [5]): 5.18e-05 ± 1.1e-05 s⁻¹
self-cleavage kobs at 2500 uM GlcN6P (glucosamine-6-phosphate [3]): 0.000144 ± 5.4e-05 s⁻¹
self-cleavage kobs at 10000 uM GlcN6P (glucosamine-6-phosphate [4]): 0.000146 ± 1.8e-05 s⁻¹

AUAAAAGCGCCAGAAGUACAGAAAUGUAGUUGACGAGGAGGAGGUUCAUCGAAUUUUCGGCGGAUGCCUCCAAA [C16G U47C]
kcat (glucosamine-6-phosphate [1]): 0.00027 ± 0.00013 s⁻¹
self-cleavage kobs at 640 uM GlcN6P (glucosamine-6-phosphate [5]): 0.000231 ± 7.9e-05 s⁻¹
self-cleavage kobs at 2500 uM GlcN6P (glucosamine-6-phosphate [3]): 0.000192 ± 5.1e-05 s⁻¹

AUAAAAGCGCCAGAAAUACAGAAAUGUAGUUGACGAGGAGGAGGUUUAUCGAGUUUUCGGCGGAUGCCUCCAAA [C16A A53G]
kcat (glucosamine-6-phosphate [1]): 0.00159 ± 0.00057 s⁻¹
self-cleavage kobs at 40 uM GlcN6P (glucosamine-6-phosphate [6]): 7.66e-05 ± 1.7e-05 s⁻¹
self-cleavage kobs at 160 uM GlcN6P (glucosamine-6-phosphate [7]): 0.000134 ± 3.8e-05 s⁻¹
self-cleavage kobs at 640 uM GlcN6P (glucosamine-6-phosphate [5]): 0.000374 ± 9.2e-05 s⁻¹
self-cleavage kobs at 2500 uM GlcN6P (glucosamine-6-phosphate [3]): 0.000777 ± 0.00017 s⁻¹
self-cleavage kobs at 10000 uM GlcN6P (glucosamine-6-phosphate [4]): 0.0017 ± 0.00029 s⁻¹

AUAAAAGCGCCAGAACUACAGAAAUGUAGUUGACGAGGAGGAGGUUUAUCGAAUAUUCGGCGGAUGCGUCCAAA [U55A C68G]
kcat (glucosamine-6-phosphate [1]): 8.49e-05 ± 3.5e-06 s⁻¹
KM (glucosamine-6-phosphate [2]): 51.2 ± 14 µM
self-cleavage kobs at 40 uM GlcN6P (glucosamine-6-phosphate [6]): 3.36e-05 ± 1e-05 s⁻¹
self-cleavage kobs at 160 uM GlcN6P (glucosamine-6-phosphate [7]): 6.64e-05 ± 1e-05 s⁻¹
self-cleavage kobs at 640 uM GlcN6P (glucosamine-6-phosphate [5]): 8.75e-05 ± 1.2e-05 s⁻¹
self-cleavage kobs at 2500 uM GlcN6P (glucosamine-6-phosphate [3]): 8.44e-05 ± 1.1e-05 s⁻¹
self-cleavage kobs at 10000 uM GlcN6P (glucosamine-6-phosphate [4]): 8.04e-05 ± 7.4e-06 s⁻¹

AUAAAAGCGCCAGAACUACAGAAAUGUAGUUGACGAGGAGGAGGUUUAUCGAAUCUUCGGCGGAGGCCUCCAAA [U55C U65G]
kcat (glucosamine-6-phosphate [1]): 0.00367 ± 0.00064 s⁻¹
KM (glucosamine-6-phosphate [2]): 2540 ± 680 µM
self-cleavage kobs at 40 uM GlcN6P (glucosamine-6-phosphate [6]): 4.04e-05 ± 1.8e-05 s⁻¹
self-cleavage kobs at 160 uM GlcN6P (glucosamine-6-phosphate [7]): 0.000212 ± 5.2e-05 s⁻¹
self-cleavage kobs at 640 uM GlcN6P (glucosamine-6-phosphate [5]): 0.000908 ± 0.00016 s⁻¹
self-cleavage kobs at 2500 uM GlcN6P (glucosamine-6-phosphate [3]): 0.00177 ± 0.0003 s⁻¹
self-cleavage kobs at 10000 uM GlcN6P (glucosamine-6-phosphate [4]): 0.00288 ± 0.00054 s⁻¹

AUAAAAGCGCCAGAACUACAGAAAUGUAGUUGCCGAGGAGGAGGUUUAUCGAAUUUUUGGCGGAUGCCUCCAAA [A33C C58U]
kcat (glucosamine-6-phosphate [1]): < 1e-05 s⁻¹
self-cleavage kobs at 160 uM GlcN6P (glucosamine-6-phosphate [7]): < 1e-05 s⁻¹
self-cleavage kobs at 10000 uM GlcN6P (glucosamine-6-phosphate [4]): < 1e-05 s⁻¹

AUAAAAGCGCCACAACUACAGAAAUGUAGUUGACGAGGAGGAGGUUUAUCGAAUUUUCGGCGGAUGACUCCAAA [G13C C67A]
kcat (glucosamine-6-phosphate [1]): 5.87e-05 ± 1.1e-05 s⁻¹
KM (glucosamine-6-phosphate [2]): 5930 ± 2600 µM
self-cleavage kobs at 10000 uM GlcN6P (glucosamine-6-phosphate [4]): 3.7e-05 ± 9e-06 s⁻¹

AUAAACGCGCCAGAACUACAGAAAUGUAGUUGACGAGGAGGAGGUUUAUCGAAUUUUCGGCGGAUACCUCCAAA [A6C G66A]
kcat (glucosamine-6-phosphate [1]): 8.29e-05 ± 2.9e-06 s⁻¹
KM (glucosamine-6-phosphate [2]): 3320 ± 320 µM
self-cleavage kobs at 2500 uM GlcN6P (glucosamine-6-phosphate [3]): 3.57e-05 ± 1.3e-05 s⁻¹
self-cleavage kobs at 10000 uM GlcN6P (glucosamine-6-phosphate [4]): 6.22e-05 ± 1.2e-05 s⁻¹

AUAAAAGCGCCAGAACUACAGAAAUGUAGUUUACGAGGAGGAGGUUUAUCGAAUUUUCGGCGGAUGCUUCCAAA [G32U C68U]
kcat (glucosamine-6-phosphate [1]): 0.000114 ± 5.5e-06 s⁻¹
KM (glucosamine-6-phosphate [2]): 1540 ± 250 µM
self-cleavage kobs at 40 uM GlcN6P (glucosamine-6-phosphate [6]): < 1e-05 s⁻¹
self-cleavage kobs at 640 uM GlcN6P (glucosamine-6-phosphate [5]): 2.88e-05 ± 8.9e-06 s⁻¹
self-cleavage kobs at 2500 uM GlcN6P (glucosamine-6-phosphate [3]): 7.28e-05 ± 6.1e-06 s⁻¹
self-cleavage kobs at 10000 uM GlcN6P (glucosamine-6-phosphate [4]): 9.76e-05 ± 6.8e-06 s⁻¹
